Settings in all cases: label: 32P end label
Data set [1] deals with T1, nucleolin (NCL), recombinant (Homo sapiens, UniProt P19338 SEQ:1-710). The experiment in a line: filter; 20 mM Hepes, 150 mM NaCl, 2 mM CaCl2, 0.01% BSA, 37 C; Bmax 25.2%. The method, then: (§1) Aptamers were end-labeled with ³²P. Nucleolin protein was serially diluted in 20 mM Hepes, 150 mM NaCl, 2 mM CaCl₂ and 0.01% bovine serum albumin and incubated with a trace amount of the ³²P-labeled RNA pools. After incubation at 37° C., unbound RNA was captured on a nylon membrane and RNA-nucleolin complexes captured on a nitrocellulose membrane. The fraction of protein-bound RNA was determined via phosphorimaging of the nitrocellulose and nylon membranes.
T1 sequence (P19338 whole entry): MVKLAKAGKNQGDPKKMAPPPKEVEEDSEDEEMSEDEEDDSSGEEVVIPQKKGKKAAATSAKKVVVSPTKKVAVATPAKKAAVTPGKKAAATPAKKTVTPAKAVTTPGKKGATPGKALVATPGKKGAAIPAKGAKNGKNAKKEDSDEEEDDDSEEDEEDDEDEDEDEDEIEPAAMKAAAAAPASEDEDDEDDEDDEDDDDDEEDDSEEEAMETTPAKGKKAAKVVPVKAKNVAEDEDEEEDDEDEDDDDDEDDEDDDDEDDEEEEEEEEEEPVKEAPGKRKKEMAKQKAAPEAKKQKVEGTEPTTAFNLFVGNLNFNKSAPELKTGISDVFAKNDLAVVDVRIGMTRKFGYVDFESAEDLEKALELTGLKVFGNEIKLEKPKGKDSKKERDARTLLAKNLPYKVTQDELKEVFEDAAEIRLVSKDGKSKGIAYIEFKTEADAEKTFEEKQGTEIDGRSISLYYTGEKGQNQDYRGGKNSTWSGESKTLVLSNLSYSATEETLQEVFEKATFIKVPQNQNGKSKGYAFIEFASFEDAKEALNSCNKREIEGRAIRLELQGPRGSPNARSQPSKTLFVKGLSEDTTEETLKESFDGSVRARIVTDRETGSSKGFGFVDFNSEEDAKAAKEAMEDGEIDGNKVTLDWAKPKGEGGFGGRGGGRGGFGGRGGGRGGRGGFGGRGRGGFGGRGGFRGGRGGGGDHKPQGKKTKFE

Data set [2] deals with T1, nucleolin (NCL), recombinant. The experiment in a line: filter; 20 mM Hepes, 150 mM NaCl, 2 mM CaCl2, 0.01% BSA, 37 C; Bmax 33.6%, R2 0.6520. As to the method: as §1
Data set [3] has the same target. In words: filter; 20 mM Hepes, 150 mM NaCl, 2 mM CaCl2, 0.01% BSA, 37 C; Bmax 53.6%. As to the method: as §1
Data set [4] shares this target. In words: filter; among truncates with best affinity; values only in figure.
Data set [5] shares this target. In words: filter; 20 mM Hepes, 150 mM NaCl, 2 mM CaCl2, 0.01% BSA, 37 C; Bmax 32.76%. The method, then: as §1
Data set [6] has the same target. The experiment in a line: filter; similar affinity to parent Ev3.
The target is the same in data set [7]. In words: filter; Ev2 described as non-binding aptamer control.
Data set [8] shares this target. In words: filter; 20 mM Hepes, 150 mM NaCl, 2 mM CaCl2, 0.01% BSA, 37 C; Bmax 23.08%. The method, then:
as §1

B1: FAM-B (ssRNA)
RNA: GGGAGAGAGGAAGAGGGAUGGGAGCCAGCUUUGCAUACCACGUGCAAUUCACUCCACCCGUCACAUAACCCAGAGGUCGAUAGUACUGGAUCCCCCC
modifications: 2'-F pyrimidines
As a reminder, the Kd is the free concentration of one partner at which half of the binding sites on the other are occupied at equilibrium, for simple one-to-one binding. For B1, the Kd in data set [1] was determined as 0.851 nM.

B2: FAM-F (ssRNA)
RNA: GGGAGAGAGGAAGAGGGAUGGGACCACGCGCCAACGUGUCAGCUACACGCCGUGUUCCCCGGCAUAACCCAGAGGUCGAUAGUACUGGAUCCCCCC
modifications: 2'-F pyrimidines
As to B2, the equilibrium dissociation constant (Kd) in data set [2] was determined as 0.37 nM.

B3: FAM-D (ssRNA)
RNA: GGGAGAGAGGAAGAGGGAUGGGCACAUGGUACGCCCAAAGCGAGGCCCGCUGCGUAGUGCCAUAACCCAGAGGUCGAUAGUACUGGAUCCCCCC
modifications: 2'-F pyrimidines
As to B3, in data set [3], the Kd amounted to 0.586 nM.

B4: Fv3 (ssRNA)
RNA: GGGAGAGAGGAAGAGGGAUGGGACCACGCGCCAACGUGUCAGCUACACGCCGUGUUCCCCGG
modifications: 2'-F pyrimidines
On to B4, for which, in data set [4], the binding result is “binds”.

B5: FAM-C (ssRNA)
RNA: GGGAGAGAGGAAGAGGGAUGGGAAGAUCUGCUAAGUGCACGCACAAUCACCAUCGAGCGUCUCAUAACCCAGAGGUCGAUAGUACUGGAUCCCCCC
modifications: 2'-F pyrimidines
For the molecule B5, the Kd in data set [5] was 0.428 nM.

B6: Bv1 (ssRNA)
RNA: GGAAGAGGGAUGGGUGCCAGCUUUGCAUACCACGUGCAAUUCACUCCACCCGUCAC
modifications: 2'-F pyrimidines
With B6, the binding result in data set [4] is “binds”.

B7: Ev3 (ssRNA)
RNA: GGGAGAGAGGAAGAGGGAUGGGCACGGUCCAGCGCUAACUGUACCUGCUGUGCCACCCACCG
modifications: 2'-F pyrimidines
Take B7: the binding result in data set [4] (DL650 for flow) is “binds”.

B8: Ev5 (ssRNA)
RNA: GGAAGAGGGAUGGGCACGGUCCAGCGCUAACUGUACCUGCUGUGCCACCCACC
modifications: 2'-F pyrimidines
Consider B8, for which the binding result in data set [4] (DL650 for flow) is listed as “binds”.
As for GGGAUGGGCACGGUCCAGCGCUAACUGUACCUGCUGUGCCACCC (ssRNA, 2'-F pyrimidines) [Ev3.min21], the binding result in data set [6] is recorded as “binds”.
On to GGGAUGGGCACGGUCCAGCGCUAACUGUACCUGCUGUGCCACCCACCGC (ssRNA, 2'-F pyrimidines) [Ev2], for which the binding result in data set [7] was “no binding”.

B9: FAM-E (ssRNA)
RNA: GGGAGAGAGGAAGAGGGAUGGGCACGGUCCAGCGCUAACUGUACCUGCUGUGCCACCCACCGCAUAACCCAGAGGUCGAUAGUACUGGAUCCCCCC
modifications: 2'-F pyrimidines
Consider B9, for which the Kd in data set [8] is 1.69 nM.

B10: Ev3.min22 (ssRNA)
RNA: GGGAGGAAGAGGGAUGGGCACGGUCCAGCGCUAACUGUACCUGCUGUGCCACCC
modifications: 2'-F pyrimidines
As for B10, the binding result in data set [6] is “binds”.

B11: Dv2 (ssRNA)
RNA: GGGAGAGAGGAAGAGGGAUGGGCACAUGGUACGCCCAAAGCGAGGCCCGCUGCGUAGUGCC
modifications: 2'-F pyrimidines
On to B11, for which, in data set [4], the binding result is reported as “binds”.

B12: Ev3.min24 (ssRNA)
RNA: GGGAGGAAGAGGGAUGGGCACGGUCCAGCGCACUGUACCUGCUGUGCCACCC
modifications: 2'-F pyrimidines
Regarding B12, the binding result in data set [6] was “binds”.

The values above are taken from patent US20200283773, “NUCLEOLIN-TARGETING APTAMERS AND METHODS OF USING THE SAME” (Duke University, published 2020).
